Reference: article PMC3776929 (Cell, 2013)

B1: Swc5 (natural protein, S. cerevisiae, UniProt P38326 1-303, looked up)
chain: MPEVETKIIPNEKEDEDEDGYIEEEDEDFQPEKDKLGGGSDDSDASDGGDDYDDGVNRDKGRNKVDYSRIESESGGLIKTRRARQAEEEYAKTHKYESLTVESIPAKVNSIWEELQEASKNRLLSSSGKVGSVLDGSKEARSTTAAQQEDKILIERNYKFAGETVHEKKWVSRSSAEGQEYLNSLKFKQQAPAAPVQLEKAVRTKSNESRQHLRRPLKRPPLLEQIISGGLRPKLTTLEKSQLDWASYVDRAGLNDELVLHNKDGFLARQEFLQRVGSAEDERYKELRRQQLAQQLQQDSEAS
notes: Swc5, subunit of SWR1, S. cerevisiae; also called small subunit Swc5; source: endogenous, S. cerevisiae; co-purified in the SWR1 complex

What was measured:
[1] = target: B1; assay: cross-linking; ∼45 μg affinity-purified SWR1 cross-linked with 1 mM DSS d0/d12 in SWR1 buffer, 37°C, 30 min; trypsin, SEC enrichment, LC-MS/MS, xQuest (CX-MS); settings: both partners purified
[2] = target: T1, Act1 (S. cerevisiae, UniProt P60010 1-375); assay: as above; settings: both partners purified
T1 construct: Act1 (actin), N-Module subunit of SWR1, S. cerevisiae; source: endogenous, S. cerevisiae; co-purified in the SWR1 complex

[3] = target: T2, Swr1, FLAG-tagged catalytic subunit of the SWR1 complex (S. cerevisiae, UniProt Q05471 1-1514); assay: co-IP; FLAG affinity purification of SWR1 (or a subcomplex) from S. cerevisiae, eluted with 3× FLAG peptide; SDS-PAGE (4%-12% Bis-Tris), Coomassie or SYPRO Orange stain; band intensities normalised for protein size for the stoichiometry; settings: partners not purified
T2 construct: Swr1, catalytic ATPase subunit of the SWR1 complex, S. cerevisiae; HSA domain in the N-terminal half, split ATPase domain with long insert in the C-terminal half; also called Swr1-3xFLAG; Swr1 ATPase
T2 sequence (Q05471 whole entry, the tested form may be a part, one chain of several): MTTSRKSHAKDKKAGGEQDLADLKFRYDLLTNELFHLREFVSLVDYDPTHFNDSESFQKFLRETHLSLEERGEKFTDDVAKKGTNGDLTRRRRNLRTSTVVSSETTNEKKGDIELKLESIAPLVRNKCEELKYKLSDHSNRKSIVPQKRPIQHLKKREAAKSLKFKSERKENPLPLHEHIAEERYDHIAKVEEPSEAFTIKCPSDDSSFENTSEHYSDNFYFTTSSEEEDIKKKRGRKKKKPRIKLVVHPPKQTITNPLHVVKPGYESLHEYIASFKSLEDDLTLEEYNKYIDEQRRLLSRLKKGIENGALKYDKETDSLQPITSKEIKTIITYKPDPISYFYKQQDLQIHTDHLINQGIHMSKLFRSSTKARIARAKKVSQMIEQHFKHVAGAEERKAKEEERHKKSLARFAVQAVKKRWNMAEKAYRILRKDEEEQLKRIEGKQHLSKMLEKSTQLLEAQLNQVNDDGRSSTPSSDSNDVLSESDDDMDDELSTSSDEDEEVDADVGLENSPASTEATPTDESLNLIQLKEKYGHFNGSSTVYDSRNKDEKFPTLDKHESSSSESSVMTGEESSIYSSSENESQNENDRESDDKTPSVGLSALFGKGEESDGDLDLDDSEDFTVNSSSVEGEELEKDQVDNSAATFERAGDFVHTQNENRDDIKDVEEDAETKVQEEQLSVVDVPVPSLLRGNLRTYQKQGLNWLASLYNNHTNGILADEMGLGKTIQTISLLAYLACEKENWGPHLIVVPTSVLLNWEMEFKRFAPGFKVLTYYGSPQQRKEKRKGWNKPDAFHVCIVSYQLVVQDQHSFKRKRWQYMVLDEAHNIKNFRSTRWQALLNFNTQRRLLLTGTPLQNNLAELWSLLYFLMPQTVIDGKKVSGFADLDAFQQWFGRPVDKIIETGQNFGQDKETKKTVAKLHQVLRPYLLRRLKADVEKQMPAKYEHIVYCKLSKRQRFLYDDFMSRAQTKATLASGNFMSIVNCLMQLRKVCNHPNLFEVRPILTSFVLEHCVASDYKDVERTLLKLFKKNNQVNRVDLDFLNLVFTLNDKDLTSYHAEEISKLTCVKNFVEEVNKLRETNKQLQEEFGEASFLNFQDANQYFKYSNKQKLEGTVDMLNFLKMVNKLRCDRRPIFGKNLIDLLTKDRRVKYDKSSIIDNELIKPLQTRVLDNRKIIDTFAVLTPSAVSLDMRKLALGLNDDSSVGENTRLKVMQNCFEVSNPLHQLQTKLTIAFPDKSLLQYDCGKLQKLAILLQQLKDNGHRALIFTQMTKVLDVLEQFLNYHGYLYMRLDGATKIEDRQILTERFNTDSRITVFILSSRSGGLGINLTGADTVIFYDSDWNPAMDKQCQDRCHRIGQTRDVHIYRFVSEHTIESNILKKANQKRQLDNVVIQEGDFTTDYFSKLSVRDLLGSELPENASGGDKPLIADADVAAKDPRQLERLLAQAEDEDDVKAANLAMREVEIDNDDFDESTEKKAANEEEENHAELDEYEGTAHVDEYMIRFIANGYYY

| binding result [1] | binding result [2] | binding result [3] | Binder |
| --- | --- | --- | --- |
| binds |  |  | Yaf9 (natural protein, S. cerevisiae, UniProt P53930 1-226, looked up, Yaf9, N-Module subunit of SWR1, S. cerevisiae; source: endogenous, S. cerevisiae; co-purified in the SWR1 complex) MAPTISKRIKTLSVSRPIIYGNTAKKMGSVKPPNAPAEHTHLWTIFVRGPQNEDISYFIKKVVFKLHDTYPNPVRSIEAPPFELTETGWGEFDINIKVYFVEEANEKVLNFYHRLRLHPYANPVPNSDNGNEQNTTDHNSKDAEVSSVYFDEIVFNEPNEEFFKILMSRPGNLLPSNKTDDCVYSKQLEQEEIDRIEIGIEKVDKEIDELKQKLENLVKQEAINGS |
|  | binds | binds | B1 |
